Test results: patent publication US20240417469A1
pKd: −log10 of the molar value.

Key:
[1] = target: recombinant CD3D&E protein (human CD3-his tag) (human) (UniProt P04234); assay: SPR Biacore, Ab captured on Protein A
[2] = target: human CD3 on cells (human PBMC; Jurkat TCR/CD3 NFAT reporter cells) (human) (UniProt P07766); assay: FACS on human PBMC, PE anti-human IgG Fc secondary, geometric mean fluorescence
Sequence of human CD3 on cells (human PBMC; Jurkat TCR/CD3 NFAT reporter cells) (human) (P07766 23-207, chain 1 of 3): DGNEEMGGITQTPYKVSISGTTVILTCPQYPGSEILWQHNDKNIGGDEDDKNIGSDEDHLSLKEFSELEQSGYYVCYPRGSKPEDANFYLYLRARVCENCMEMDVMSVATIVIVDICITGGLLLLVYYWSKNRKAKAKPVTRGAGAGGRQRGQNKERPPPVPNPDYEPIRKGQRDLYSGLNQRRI
Sequence of human CD3 on cells (human PBMC; Jurkat TCR/CD3 NFAT reporter cells) (human) (P04234 22-171, chain 2 of 3, further chain): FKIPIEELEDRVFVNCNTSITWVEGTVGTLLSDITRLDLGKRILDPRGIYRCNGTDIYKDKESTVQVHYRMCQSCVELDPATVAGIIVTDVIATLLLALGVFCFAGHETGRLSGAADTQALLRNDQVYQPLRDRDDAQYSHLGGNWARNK
Sequence of human CD3 on cells (human PBMC; Jurkat TCR/CD3 NFAT reporter cells) (human) (P09693 23-182, chain 3 of 3, further chain): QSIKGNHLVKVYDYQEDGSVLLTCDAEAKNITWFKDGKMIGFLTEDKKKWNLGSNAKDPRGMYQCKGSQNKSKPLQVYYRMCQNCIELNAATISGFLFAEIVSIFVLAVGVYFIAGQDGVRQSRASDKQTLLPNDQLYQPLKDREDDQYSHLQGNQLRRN

Sequence of recombinant CD3D&E protein (human CD3-his tag) (human) (P04234 22-105 limits assumed, chain 1 of 2): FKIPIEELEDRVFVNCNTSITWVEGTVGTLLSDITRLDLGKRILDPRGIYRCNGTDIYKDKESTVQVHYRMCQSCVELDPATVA
Sequence of recombinant CD3D&E protein (human CD3-his tag) (human) (P07766 23-126 limits assumed, chain 2 of 2, further chain): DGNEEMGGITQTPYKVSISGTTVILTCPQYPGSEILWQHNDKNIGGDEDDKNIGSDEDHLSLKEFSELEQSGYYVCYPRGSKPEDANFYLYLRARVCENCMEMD

OKT3 (antibody)
pKd [1]: 8.43
koff [1]: 0.00272 s⁻¹
kon [1]: 735000 M⁻¹ s⁻¹
EC50 (read off the curve) [2]: 0.04 nM
